Tests used:
[1] = target: TbPEX19FL-His (T. brucei); assay: AlphaScreen or HTRF
[2] = target: TbPEX19FL-His (T. brucei); assay: ELISA
[3] = target: GST-TbPEX3d44 (T. brucei); assay: AlphaScreen or HTRF

GST-TbPEX3d44 (domain or fragment)
Kd [1]: 32.8 nM
Kd [2]: 0.16 nM

TbPEX19-Strep (natural protein)
Kd [3]: 3.7 nM

tag-free TbPEX19 (natural protein)
Kd [3]: 9.7 nM

From paper PMC8721105
